To fix the notation:
B1: recombinant human NCAM2 FnIII1-2 double domain (expressed in E. coli) (domain or fragment)
chain: SPYGVKIIELSQTTAKVSFNKPDSHGGVPIHHYQVDVKEVASEIWKIVRSHGVQTMVVLNNLEPNTTYEIRVAAVNGKGQGDYSKIEIFQTLPVREPSPPSIHGQPSSGKSFKLSITKQDDGGAPILEYIVKYRSKDKEDQWLEKKVQGNKDHIILEHLQWTMGYEVQITAANRLGYSEPTVYEFSMPPKPNIIKD
B2: recombinant human NCAM2 FnIII1 domain (domain or fragment)
chain: SPYGVKIIELSQTTAKVSFNKPDSHGGVPIHHYQVDVKEVASEIWKIVRSHGVQTMVVLNNLEPNTTYEIRVAAVNGKGQGDYSKIEIFQTLPV

In the test the target is FGFR1β (IIIc)/Fc chimera. The test is described as follows: SPR; BIAcore 2000, 25 °C, 10 mM PBS pH 7.4; about 1000 RU FGFR1β (IIIc)/Fc and 750 RU human IgG1 Fc (control cell) immobilised on a CM4 chip by amine coupling; NCAM2 domains injected at 20-30 μl/min; steady state affinity fit, Kd roughly estimated.
Regarding “NCAM2 FnIII1-2 domains expressed from P. pastoris (domain or fragment)”, the Kd (usually the free concentration of one partner at which half of the binding sites on the other are occupied at equilibrium, for simple one-to-one binding) is 400 nM.

For “recombinant human NCAM2 FnIII2 domain (from UniProt O15394 592-693) (domain or fragment)”, the Kd is 4400 nM.

As for B1, the Kd is 130 nM.

Regarding B2, the Kd is 290 nM.

These data come from publication PMC5997747.
